The results in this text go back to US20230330143A1 (GAMMADELTA THERAPEUTICS, published 2023).

This assay has as its target Vδ1 chain-containing γδ TCR on γδ T cells. Description: cell-based or functional assay.

B1: 1252_P01_C08 (antibody, V domains shown)
VH: EVQLLESGGGLVQPGRSLRLSCAASGFTVSSNYMSWVRQAPGKGLEWVSVIYSGGSTYYADSVKGRFTISRDNSKNTLYLQMNSLRAEDTAVYYCASPIELGAFDIWGQGTLVTVSS
VL: SSYELTQPPSVSVAPGKTARITCGGNNIGSQSVHWYQQKPGQAPMLVIYYDSDRPSGIPERFSGSNSGNTATLTISRVEAGDEADYYCQVWDSSSDHVVFGGGTKLTVL
notes: Anti-Vδ1 antibody with a lambda light chain
Regarding B1, the “Killing assay (EC50 µg/ml - 2 or 3 donors)” value (“Killing assay” below) was found to be 0.02 µg/mL.

B2: 1245_P02_G04 (antibody, V domains shown)
VH: QVQLQQSGPGLVKPSQTLSLTCAISGDSVSSKSAAWNWIRQSPSRGLEWLGRTYYRSKWSTDYAASVKSRITINPDTSKNQLSLQLNSVTPEDTAVYYCARTWSGYVDVWGQGTLVTVSS
VL: DIQMTQSPPALSASVGDRVTITCRASQDINDWLAWYQHKPGKAPKLLIYDASSLESGVPSRFSGSGSGTEFTLTISSLQPDDFATYYCQQSYSTPQVTFGQGTRLEIK
Turning to B2, the “Killing assay” value is 0.1 µg/mL and the “T cell degranulation (EC50 µg/ml - 3 donors)” value (shortened to “T cell degranulation”) stood at 0.002 µg/mL.

B3: 1139_P01_E04 (antibody, V domains shown)
VH: QVQLQQSGPGLVKPSQTLSLTCAISGDSVSSNSAAWNWIRQSPSRGLEWLGRTYYRSKWYNDYAVSVRSRITINPDTSKNQFSLQLNSVTPEDTAVYYCARSWNDAFDIWGQGTTVTVSS
VL: DIVMTQSPSTLSASIGDRVTITCRAGQSISTWLAWYQQKPGKAPKLLIYDASSLESGVPLRFSGSGSGTDFTLTISSLQPEDFATYYCQQSYSTPLTFGGGTKVEIK
On to B3, for which the “T cell degranulation” value worked out at 0.005 µg/mL.

B4: 1245_P01_G09 (antibody, V domains shown)
VH: QVQLQQSGPGLVKPSQTLSLTCAISGDSVSSNSAAWNWIRQSPSRGLEWLGRTYYGSKWYNEYALSVKSRIIINPDTSKNQFSLQLNSVTPEDTAVYYCARDYYYSMDVWGQGTLVTVSS
VL: DIVMTQSPSTLSASIGDRVTITCRAGQSISTWLAWYQQKPGKAPKLLIYDASSLESGVPLRFSGSGSGTEFTLAISSLQPDDFATYYCQQSYSTPVTFGQGTKVEIK
As to B4, the “T cell degranulation” value was 0.001 µg/mL.

B5: 1245_P01_G06 (antibody, V domains shown)
VH: QVQLVESGGGLVKPGGSLRLSCAASGFTFSDYYMSWIRQAPGKGLEWVSYISSSGSTIYYADSVKGRFTISRDNAKNSLYLQMNSLRAEDTAVYYCARHSWNDAFDVWGQGTLVTVSS
VL: not shown
In the case of B5, the “T cell degranulation” value came to 0.001 µg/mL.

B6: 1245_P01_E07 (antibody, V domains shown)
VH: QVQLVESGGGLVKPGGSLRLSCAASGFTFSDYYMSWIRQAPGKGLEWVSYISSSGSTIYYADSVKGRFTISRDNAKNSLYLQMNSLRAEDTAVYYCARVDYADAFDIWGQGTLVTVSS
VL: DIQMTQSPSSLSASVGDRVTIACRAGQSIGTYLNWYQQKPGKAPKLLIYVASSLQSGVPSRFSGSGSGTEFTLTISSLQPEDFATYYCQQSYSTLLTFGRGTKVEIK
On to B6, for which the “Killing assay” value was 0.06 µg/mL.
